Measurements taken from patent US20120014950A1 (Xencor, published 2012).

Experiments:
[1] = target: T1, human DR3-Fc fusion protein (human, UniProt Q93038 25-199); assay: BIAcore SPR; human DR3-Fc amine-coupled to CM5 chip, Fab in flow; ratio of average Kd
T1 construct: also called hDR3-Fc; not shown: Fc portion
T1 sequence: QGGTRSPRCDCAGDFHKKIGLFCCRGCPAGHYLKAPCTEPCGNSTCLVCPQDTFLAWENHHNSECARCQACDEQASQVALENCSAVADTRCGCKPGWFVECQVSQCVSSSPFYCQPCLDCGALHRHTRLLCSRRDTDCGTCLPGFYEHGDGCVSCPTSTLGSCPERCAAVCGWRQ
Protocol: (§1) Briefly, target proteins are covalently immoblilzed to the BIAcore CM5 sensor chip (Cat #BR-1000-14 (Biacore Life Sciences, Piscataway, N.J.)) via amine groups using N-ethyl-N′-(dimethylaminopropyl) carbodilimide/N-hydroxysuccinimide chemistry. Empty flow cells can be used as controls negative for target binding and for background subtraction. Six different concentrations of antibody molecules (range 0 to 50 nM) are flowed over the polypeptide-derivatized flow cells at 15 μL1/min for a total volume of 50 μl. The amount of bound protein is determined during washing of the flow cell with HBS buffer (10 mM HEPES [pH 7.4], 150 mM NaCl, 3.4 mM EDTA, and 0.005% Surfactant P20). The flow cell surface is regenerated by displacing bound protein by washing with 20 μl of 10 mM glycine-HCL (pH 2.3). For kinetic analysis, the on and off rates are determined using the kinetic evaluation program in BIAevaluation 3 software using a 1:1 binding model and the global analysis method.
(§2) In order to confirm that the humanized variant antibodies were capable of binding to the extracellular domain of DR3, the Kd values of eight humanized Fab variants were determined by BIAcore assay. In this experiment, a human DR3-Fc fusion protein was covalently immoblilzed to the BIAcore CM5 sensor chip. Empty flow cells that were negative for anti-DR3-Fab binding were used for background subtraction.

[2] = target: T1, human DR3-Fc fusion protein; assay: BIAcore SPR; human DR3-Fc amine-coupled to CM5 chip, Fab in flow; 1:1 model; average of n=2
Protocol: as §1, §2

[3] = target: T2, human DR3 receptor expressed on the cell surface (human, UniProt Q93038 25-417); assay: Flow cytometry on HEK293F cells transiently expressing human DR3. 1 ug/mL human TL1A, detected with anti-TL1A-biotin polyclonal antibody and streptavidin-PE. No competitor.
T2 construct: also called hDR3; TNFRSF25
T2 sequence: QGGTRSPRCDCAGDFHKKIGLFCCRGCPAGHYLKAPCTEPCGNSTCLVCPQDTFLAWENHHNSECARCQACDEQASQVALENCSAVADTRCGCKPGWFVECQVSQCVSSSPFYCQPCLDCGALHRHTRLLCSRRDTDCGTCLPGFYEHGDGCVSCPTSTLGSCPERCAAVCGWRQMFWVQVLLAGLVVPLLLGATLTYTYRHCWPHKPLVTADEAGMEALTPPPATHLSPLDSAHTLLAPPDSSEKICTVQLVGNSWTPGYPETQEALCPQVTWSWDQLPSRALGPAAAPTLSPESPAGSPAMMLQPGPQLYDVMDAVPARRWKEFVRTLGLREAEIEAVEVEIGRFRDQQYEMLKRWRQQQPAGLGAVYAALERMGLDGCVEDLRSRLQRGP
Protocol: FIG. 4. Flow cytometry results of 11H08 binding to hDR3-expressing HEK293F cells. HEK293F cells transiently expressing human DR3 were used to test the ability of the whole 11H08 immunoglobulin molecule to inhibit human TL1A binding to DR3 (See, Example 2). HEK293F cells were incubated with 1 μg/mL of human TL1A in the presence of either an unrelated antibody (mIgG1) as an isotype control (known not to bind TL1A or DR3) or 11H08. […] The upper panels show binding of labeled TL1A either by itself or in the presence of an unrelated antibody (mIgG1).
The anti-DR3 monoclonal antibody 11H08 was assayed for its ability to inhibit human TL1A binding to human DR3 using techniques known to those skilled in the art. Briefly, HEK293F cells transiently expressing human DR3 were incubated with 1 μg/mL of human TL1A in the presence of either an unrelated antibody (mIgG1) as an isotype control that was known not to bind TL1A or DR3, or an anti-DR3 monoclonal antibody (11H08), for 20 minutes at room temperature. Binding was detected using an anti-TL1A-biotin polyclonal antibody followed by Streptavidin PE. The ability of the anti-DR3 monoclonal antibody to inhibit binding of TL1A to DR3 was measured by flow cytometry.

[4] = target: T1, human DR3-Fc fusion protein; assay: BIAcore SPR; human DR3-Fc amine-coupled to CM5 chip, Fab-HSA in flow; ratio of average Kd
Protocol: as §1
(§3) Additionally, H1L2-Fab and H5L2-Fab were fused to human serum albumin (See, Example 6) and similarly tested. The Kd values of H0L0-Fab-HSA, H1L2-Fab-HSA, and H5L2-Fab-HSA were determined by BIAcore analysis as described above.

[5] = target: T1, human DR3-Fc fusion protein; assay: BIAcore SPR; human DR3-Fc amine-coupled to CM5 chip, Fab-HSA in flow; 1:1 model; average of n=2
Protocol: as §1, §3

| Binder | Ratio of binding relative to H0L0-Fab [1] | Kd [2] | binding result [3] | Ratio of binding relative to H0L0-Fab [4] | Kd [5] |
| --- | --- | --- | --- | --- | --- |
| H0L0-Fab (Fab, V domains shown, also called 11H08-Fab; parental anti-DR3 molecule) VH: EVMLVESGGGLVKPGGSLKLSCAASGFTFTNYAMSWVRQTPEKRLEWVATITSGGSYIYYLDSVKGRFTISRDNAKSTLYLQMSSLRSEDTAIYNCARRKDGNYYYAMDYWGQGTSVTVSS VL: DIVLTQSPASLAVSLGQRATISCRASESVDSYGNSFIHWYQQKAGQPPKLLIYRASNLESGIPARFSGSGSRTDFTLTINPVEADDVATYYCQQSYEDPWTFGGGTKLEIKR | 1 | 1.37 nM | – | – | – |
| H0.1L0-Fab (Fab, V domains shown) VH: EVMLVESGGGLVKPGGSLKLSCAASGFTFTNYAMSWVRQTPEKRLEWVATITSGGSYIYYLDSVKGRFTISRDNAKSTLYLQMSSLRSEDTAIYYCARRKDGNYYYAMDYWGQGTSVTVSS VL: DIVLTQSPASLAVSLGQRATISCRASESVDSYGNSFIHWYQQKAGQPPKLLIYRASNLESGIPARFSGSGSRTDFTLTINPVEADDVATYYCQQSYEDPWTFGGGTKLEIKR | 1.09 | 1.5 nM | – | – | – |
| human TL1A (ligand, UniProt O95150 72-251, looked up, also called hTL1A; TNFSF15) LKGQEFAPSHQQVYAPLRADGDKPRAHLTVVRQTPTQHFKNQFPALHWEHELGLAFTKNRMNYTNKFLLIPESGDYFIYSQVTFRGMTSECSEIRQAGRPNKPDSITVVITKVTDSYPEPTQLLMGTKSVCEVGSNWFQPIYLGAMFSLQEGDKLMVNVSDISLVDYTKEDKTFFGAFLL | – | – | binds | – | – |
| H1.1L4-Fab (Fab, V domains shown) VH: EVQLVESGGGLVKPGGSLRLSCAASGFTFTNYAMSWVRQAPGQRLEWVSTITSGGSYIYYLDSVKGRFTISRDNAKSTLYLQMNSLRAEDTAVYYCARRKDGNYYYAMDYWGQGTTVTVSS VL: DIVLTQTPLSLSVTPGQPASISCRASESVDSYGNSFIHWYQQKPGQPPKLLIYRASNLESGIPARFSGSGSRTDFTLKISRVEAEDVGVYYCQQSYEDPWTFGGGTKLEIKR | 0.94 | 1.29 nM | – | – | – |
| H1.1L1-Fab (Fab, V domains shown) VH: EVQLVESGGGLVKPGGSLRLSCAASGFTFTNYAMSWVRQAPGQRLEWVSTITSGGSYIYYLDSVKGRFTISRDNAKSTLYLQMNSLRAEDTAVYYCARRKDGNYYYAMDYWGQGTTVTVSS VL: DIVLTQSPATLSLSPGERATLSCRASESVDSYGNSFIHWYQQKPGQPPKLLIYRASNLESGIPARFSGSGSRTDFTLTISSLEPEDFAVYYCQQSYEDPWTFGGGTKLEIKR | 1.06 | 1.46 nM | – | – | – |
| H5.3L4-Fab (Fab, V domains shown) VH: EVMLLQSGAEVKKPGASVKVSCKASGFTFTNYAMSWVRQAPGQRLEWVATITSGGSYIYYLDSVKGRFTISRDNAKSTLHLQMNSLRAEDTAVYYCARRKDGNYYYAMDYWGQGTTVTVSS VL: DIVLTQTPLSLSVTPGQPASISCRASESVDSYGNSFIHWYQQKPGQPPKLLIYRASNLESGIPARFSGSGSRTDFTLKISRVEAEDVGVYYCQQSYEDPWTFGGGTKLEIKR | 1.28 | 1.76 nM | – | – | – |
| H1.1L2-Fab (Fab, V domains shown) VH: EVQLVESGGGLVKPGGSLRLSCAASGFTFTNYAMSWVRQAPGQRLEWVSTITSGGSYIYYLDSVKGRFTISRDNAKSTLYLQMNSLRAEDTAVYYCARRKDGNYYYAMDYWGQGTTVTVSS VL: DIVLTQSPSSLSASVGDRVTITCRASESVDSYGNSFIHWYQQKPGQPPKLLIYRASNLESGIPARFSGSGSRTDFTLTISSLQPEDFATYYCQQSYEDPWTFGGGTKLEIKR | 0.85 | 1.17 nM | – | – | – |
| H4.2L2-Fab (Fab, V domains shown) VH: QVQLVQSGSELKKPGASVKVSCKASGFTFTNYAMSWVRQAPGKRLEWVATITSGGSYIYYLDSVKGRFTISRENAKSTLYLQMNSLRTEDTALYYCARRKDGNYYYAMDYWGQGTTVTVSS VL: DIVLTQSPSSLSASVGDRVTITCRASESVDSYGNSFIHWYQQKPGQPPKLLIYRASNLESGIPARFSGSGSRTDFTLTISSLQPEDFATYYCQQSYEDPWTFGGGTKLEIKR | 1.46 | 2.01 nM | – | – | – |
| H5.3L2-Fab (Fab, V domains shown) VH: EVMLLQSGAEVKKPGASVKVSCKASGFTFTNYAMSWVRQAPGQRLEWVATITSGGSYIYYLDSVKGRFTISRDNAKSTLHLQMNSLRAEDTAVYYCARRKDGNYYYAMDYWGQGTTVTVSS VL: DIVLTQSPSSLSASVGDRVTITCRASESVDSYGNSFIHWYQQKPGQPPKLLIYRASNLESGIPARFSGSGSRTDFTLTISSLQPEDFATYYCQQSYEDPWTFGGGTKLEIKR | 1.22 | 1.67 nM | – | – | – |
| H1L2-Fab-HSA (Fab, also called AB13350-C1) heavy: not shown light: DIVLTQSPSSLSASVGDRVTITCRASESVDSYGNSFIHWYQQKPGQPPKLLIYRASNLESGIPARFSGSGSRTDFTLTISSLQPEDFATYYCQQSYEDPWTFGGGTKLEIKRTVAAPSVFIFPPSDEQLKSGTASVVCLLNNFYPREAKVQWKVDNALQSGNSQESVTEQDSKDSTYSLSSTLTLSKADYEKHKVYACEVTHQGLSSPVTKSFNRGEC | – | – | – | 0.6 | 3.06 nM |
| H5L2-Fab-HSA (Fab, also called AB13351-C1) heavy: not shown light: DIVLTQSPSSLSASVGDRVTITCRASESVDSYGNSFIHWYQQKPGQPPKLLIYRASNLESGIPARFSGSGSRTDFTLTISSLQPEDFATYYCQQSYEDPWTFGGGTKLEIKRTVAAPSVFIFPPSDEQLKSGTASVVCLLNNFYPREAKVQWKVDNALQSGNSQESVTEQDSKDSTYSLSSTLTLSKADYEKHKVYACEVTHQGLSSPVTKSFNRGEC | – | – | – | 1.4 | 7.52 nM |
